These results are taken from patent US20200262868A1 (DIGNIFY THERAPEUTICS, published 2020).

The chains are these.
T1: human NK2 Receptor (human, UniProt P21452 1-398)
T1 sequence (looked up): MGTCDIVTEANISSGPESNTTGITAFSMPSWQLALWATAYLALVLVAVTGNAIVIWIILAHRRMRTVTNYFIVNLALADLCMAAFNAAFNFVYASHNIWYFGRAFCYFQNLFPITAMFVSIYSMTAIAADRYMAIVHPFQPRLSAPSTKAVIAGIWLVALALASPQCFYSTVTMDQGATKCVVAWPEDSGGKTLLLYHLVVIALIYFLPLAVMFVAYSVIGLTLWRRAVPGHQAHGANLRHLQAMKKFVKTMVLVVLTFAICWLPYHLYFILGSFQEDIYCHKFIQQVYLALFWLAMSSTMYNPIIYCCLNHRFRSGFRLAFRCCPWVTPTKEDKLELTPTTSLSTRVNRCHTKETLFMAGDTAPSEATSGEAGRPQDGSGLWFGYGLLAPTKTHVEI

B1: Heptapeptide analog J, Asp-Arg-Phe-Val-Gly-Leu-Nle-NH2 (peptide)
peptide: DRFVGLX
HELM: PEPTIDE1{D.R.F.V.G.L.[Nle].[am]}$$$$V2.0; N-terminus assumed
SMILES: CCCC[C@H](NC(=O)[C@H](CC(C)C)NC(=O)CNC(=O)[C@@H](NC(=O)[C@H](Cc1ccccc1)NC(=O)[C@H](CCCNC(=N)N)NC(=O)[C@@H](N)CC(=O)O)C(C)C)C(N)=O
notes: synthetic heptapeptide analog of neurokinin A, Fmoc solid-phase synthesis; also called Compound J; Cmpd J
B2: Heptapeptide analog A, Asp-Lys-Phe-Val-Gly-(NMe-Leu)-Met-NH2 (peptide)
peptide: DKFVG[NMeL]M-NH2
notes: synthetic heptapeptide analog of neurokinin A, Fmoc solid-phase synthesis; also called Compound A; Cmpd A
B3: Heptapeptide analog C, Asp-Arg-Phe-Val-Gly-(NMe-Leu)-Met-NH2 (peptide)
peptide: DRFVGLM
HELM: PEPTIDE1{D.R.F.V.G.[meL].M.[am]}$$$$V2.0; N-terminus assumed
SMILES: CSCC[C@H](NC(=O)[C@H](CC(C)C)N(C)C(=O)CNC(=O)[C@@H](NC(=O)[C@H](Cc1ccccc1)NC(=O)[C@H](CCCNC(=N)N)NC(=O)[C@@H](N)CC(=O)O)C(C)C)C(N)=O
notes: synthetic heptapeptide analog of neurokinin A, Fmoc solid-phase synthesis; also called Compound C; Cmpd C
B4: Heptapeptide analog H, Asp-Arg-Phe-Val-Gly-Leu-Met-NH2 (peptide)
peptide: DRFVGLM-NH2
notes: synthetic heptapeptide analog of neurokinin A, Fmoc solid-phase synthesis; also called Compound H; Cmpd H
B5: Heptapeptide analog E, Asp-Lys-Phe-Val-(β-Ala)-Leu-Met-NH2 (peptide)
peptide: DKFVALM
HELM: PEPTIDE1{D.K.F.V.[bAla].L.M.[am]}$$$$V2.0; N-terminus assumed
SMILES: CSCC[C@H](NC(=O)[C@H](CC(C)C)NC(=O)CCNC(=O)[C@@H](NC(=O)[C@H](Cc1ccccc1)NC(=O)[C@H](CCCCN)NC(=O)[C@@H](N)CC(=O)O)C(C)C)C(N)=O
notes: synthetic heptapeptide analog of neurokinin A, Fmoc solid-phase synthesis; also called Compound E; Cmpd E
B6: Heptapeptide analog I, Asp-Arg-Phe-Val-(β-Ala)-Leu-Met-NH2 (peptide)
peptide: DRFVALM
HELM: PEPTIDE1{D.R.F.V.[bAla].L.M.[am]}$$$$V2.0; N-terminus assumed
SMILES: CSCC[C@H](NC(=O)[C@H](CC(C)C)NC(=O)CCNC(=O)[C@@H](NC(=O)[C@H](Cc1ccccc1)NC(=O)[C@H](CCCNC(=N)N)NC(=O)[C@@H](N)CC(=O)O)C(C)C)C(N)=O
notes: synthetic heptapeptide analog of neurokinin A, Fmoc solid-phase synthesis; also called Compound I; Cmpd I
B7: Heptapeptide analog B, Asp-Arg-Phe-Val-Gly-(NMe-Leu)-Nle-NH2 (peptide)
peptide: DRFVG[NMeL][Nle]-NH2
notes: synthetic heptapeptide analog of neurokinin A, Fmoc solid-phase synthesis; also called Compound B; Cmpd B
B8: Heptapeptide analog K, Asp-Arg-Phe-Val-(β-Ala)-Leu-Nle-NH2 (peptide)
peptide: DRFVALX
HELM: PEPTIDE1{D.R.F.V.[bAla].L.[Nle].[am]}$$$$V2.0; N-terminus assumed
SMILES: CCCC[C@H](NC(=O)[C@H](CC(C)C)NC(=O)CCNC(=O)[C@@H](NC(=O)[C@H](Cc1ccccc1)NC(=O)[C@H](CCCNC(=N)N)NC(=O)[C@@H](N)CC(=O)O)C(C)C)C(N)=O
notes: synthetic heptapeptide analog of neurokinin A, Fmoc solid-phase synthesis; also called Compound K; Cmpd K
B9: Heptapeptide analog G, Asp-Lys-Phe-Val-(β-Ala)-Leu-Nle-NH2 (peptide)
peptide: DKFVALX
HELM: PEPTIDE1{D.K.F.V.[bAla].L.[Nle].[am]}$$$$V2.0; N-terminus assumed
SMILES: CCCC[C@H](NC(=O)[C@H](CC(C)C)NC(=O)CCNC(=O)[C@@H](NC(=O)[C@H](Cc1ccccc1)NC(=O)[C@H](CCCCN)NC(=O)[C@@H](N)CC(=O)O)C(C)C)C(N)=O
notes: synthetic heptapeptide analog of neurokinin A, Fmoc solid-phase synthesis; also called Compound G; Cmpd G

Where no end group is shown, it is not given here. [ ]: non-standard residue; d: D form. NMeL = CN[C@@H](CC(C)C)C(=O)O; Nle = CCCC[C@H](N)C(=O)O

For the first assay, the target named is T2, human NK1 Receptor (human, UniProt P25103 1-407). Put plainly: cell-based or functional assay.
T2 sequence (P25103 whole entry): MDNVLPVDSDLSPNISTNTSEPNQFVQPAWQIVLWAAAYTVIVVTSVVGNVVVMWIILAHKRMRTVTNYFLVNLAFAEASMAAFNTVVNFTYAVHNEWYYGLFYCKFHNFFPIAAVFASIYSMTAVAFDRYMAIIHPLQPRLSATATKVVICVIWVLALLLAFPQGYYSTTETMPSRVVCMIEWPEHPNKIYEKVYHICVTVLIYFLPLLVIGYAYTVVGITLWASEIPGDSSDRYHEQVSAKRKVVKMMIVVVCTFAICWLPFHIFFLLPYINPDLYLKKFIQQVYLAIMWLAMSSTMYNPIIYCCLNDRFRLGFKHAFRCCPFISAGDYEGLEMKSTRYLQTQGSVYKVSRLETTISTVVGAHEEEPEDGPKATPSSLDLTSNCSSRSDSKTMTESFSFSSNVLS
As for B1, the “hNK1 EC50 (intracellular calcium mobilization, FLIPR, CHO-hNK1 cells)” value worked out at 1.71 nM.

As to B2, the “hNK1 EC50 (intracellular calcium mobilization, FLIPR, CHO-hNK1 cells)” value came out at 0.95 nM.

Turning to B3, the “hNK1 EC50 (intracellular calcium mobilization, FLIPR, CHO-hNK1 cells)” value is 0.3 nM.

For B4, the “hNK1 EC50 (intracellular calcium mobilization, FLIPR, CHO-hNK1 cells)” value came to 0.16 nM.

As for B5, the “hNK1 EC50 (intracellular calcium mobilization, FLIPR, CHO-hNK1 cells)” value was 6.31 nM.

Take B6: the “hNK1 EC50 (intracellular calcium mobilization, FLIPR, CHO-hNK1 cells)” value worked out at 1.83 nM.

B7: the “hNK1 EC50 (intracellular calcium mobilization, FLIPR, CHO-hNK1 cells)” value stood at 5.84 nM.

In the case of B8, the “hNK1 EC50 (intracellular calcium mobilization, FLIPR, CHO-hNK1 cells)” value was 29.5 nM.

As for B9, the “hNK1 EC50 (intracellular calcium mobilization, FLIPR, CHO-hNK1 cells)” value is 78.2 nM.

The target of the next assay is T1, human NK2 Receptor. In words: cell-based or functional assay.
Consider B1, for which the “hNK2 EC50 (intracellular calcium mobilization, FLIPR, CHO-hNK2 cells)” value was found to be 0.2 nM and the “hNK2 selectivity ratio (EC50 hNK1R/hNK2R)” value was determined as 9 ratio.

As for B2, the “hNK2 EC50 (intracellular calcium mobilization, FLIPR, CHO-hNK2 cells)” value is 0.14 nM.

Regarding B3, the “hNK2 EC50 (intracellular calcium mobilization, FLIPR, CHO-hNK2 cells)” value came to 0.16 nM and the “hNK2 selectivity ratio (EC50 hNK1R/hNK2R)” value came out at 2 ratio.

B4: the “hNK2 EC50 (intracellular calcium mobilization, FLIPR, CHO-hNK2 cells)” value came to 0.19 nM and the “hNK2 selectivity ratio (EC50 hNK1R/hNK2R)” value was determined as 0.8 ratio.

In the case of B5, the “hNK2 EC50 (intracellular calcium mobilization, FLIPR, CHO-hNK2 cells)” value was 0.18 nM and the “hNK2 selectivity ratio (EC50 hNK1R/hNK2R)” value was 36 ratio.

Take B6: the “hNK2 EC50 (intracellular calcium mobilization, FLIPR, CHO-hNK2 cells)” value came out at 0.15 nM and the “hNK2 selectivity ratio (EC50 hNK1R/hNK2R)” value worked out at 12 ratio.

For B7, the “hNK2 EC50 (intracellular calcium mobilization, FLIPR, CHO-hNK2 cells)” value was determined as 0.08 nM and the “hNK2 selectivity ratio (EC50 hNK1R/hNK2R)” value stood at 70 ratio.

As to B8, the “hNK2 EC50 (intracellular calcium mobilization, FLIPR, CHO-hNK2 cells)” value was 1.16 nM and the “hNK2 selectivity ratio (EC50 hNK1R/hNK2R)” value amounted to 25 ratio.

As for B9, the “hNK2 EC50 (intracellular calcium mobilization, FLIPR, CHO-hNK2 cells)” value came to 3 nM and the “hNK2 selectivity ratio (EC50 hNK1R/hNK2R)” value is 26 ratio.

For a further assay, the target named is T1, human NK2 Receptor. In words: ratio of Ki hNK1R/hNK2R from the radioligand competition assays.
Protocol: (§1) Filtration Assays: Stock solutions of compounds (10 mM) were prepared in DMSO and stored at −20° C. until use. Further dilutions were performed in DMSO to provide an 11-point concentration response curve (CRC) spanning final concentrations from 0.01 nM to 10 μM. Radioligand binding experiments were performed immediately after transferring 2 μL of each concentration of test compound to a 96-well plate. […] After drying for 1 h at 40° C., 50 μL of Microscint-20 was added to each filter plate and bound radioactivity was measured using a Microplate TopCount (Packard C9912). […] Filters were washed 4 times with 1 mL ice cold 0.9% NaCl and placed into pico vials with 4 mL of Filter Count.
In the case of B1, the hNK2 selectivity ratio is 72.5 ratio.

On to B3, for which the hNK2 selectivity ratio stood at 167 ratio.

For the molecule B4, the hNK2 selectivity ratio worked out at 27.1 ratio.

Consider B5, for which the hNK2 selectivity ratio stood at 122 ratio.

Turning to B6, the hNK2 selectivity ratio turned out to be 108 ratio.

As to B7, the hNK2 selectivity ratio came out at 558 ratio.

For the molecule B8, the hNK2 selectivity ratio amounted to 176 ratio.

In the case of B9, the hNK2 selectivity ratio was 189 ratio.

The target in a further assay is T2, human NK1 Receptor. In words: cell-based or functional assay. The source holds these as a separate data set.
Consider B1, for which the “maximal calcium response compared to Substance P” value was above 90%.

Take B2: the “maximal calcium response compared to Substance P” value is above 90%.

B3: the “maximal calcium response compared to Substance P” value is above 90%.

For B4, the “maximal calcium response compared to Substance P” value is above 90%.

Turning to B5, the “maximal calcium response compared to Substance P” value was above 90%.

As for B6, the “maximal calcium response compared to Substance P” value was above 90%.

As for B7, the “maximal calcium response compared to Substance P” value is above 90%.

Regarding B8, the “maximal calcium response compared to Substance P” value was above 90%.

Consider B9, for which the “maximal calcium response compared to Substance P” value is above 90%.

With DKFVGLM-NH2 [Heptapeptide analog D, Asp-Lys-Phe-Val-Gly-Leu-Met-NH2], the “maximal calcium response compared to Substance P” value was above 90%.

Another assay has as its target T1, human NK2 Receptor. Put plainly: cell-based or functional assay. This is another data set of the same source.
B1: the “maximal calcium response compared to Neurokinin A” value was above 80%.

With B2, the “maximal calcium response compared to Neurokinin A” value is above 80%.

As for B3, the “maximal calcium response compared to Neurokinin A” value is above 80%.

Regarding B4, the “maximal calcium response compared to Neurokinin A” value is above 80%.

Turning to B5, the “maximal calcium response compared to Neurokinin A” value was above 80%.

As for B6, the “maximal calcium response compared to Neurokinin A” value is above 80%.

For B7, the “maximal calcium response compared to Neurokinin A” value was above 80%.

Take B8: the “maximal calcium response compared to Neurokinin A” value is above 80%.

Consider B9, for which the “maximal calcium response compared to Neurokinin A” value is above 80%.

Take DKFVGLM-NH2 [Heptapeptide analog D, Asp-Lys-Phe-Val-Gly-Leu-Met-NH2]: the “maximal calcium response compared to Neurokinin A” value is above 80%.

Another assay addresses T2, human NK1 Receptor. In words: radioligand competition, displacement of 5.0 nM [3H]-septide from CHO-hNK1 membranes.
Protocol: as §1
On to B1, for which the Ki came to 126 nM. This lies in the sub-micromolar range.

As for B2, the affinity corresponds to a Ki of 50.1 nM. Against the preceding molecule, the Ki is about 2.5-fold lower.

The molecule B3 gave a Ki of 20.9 nM.

The molecule B4 came in with a Ki of 8.32 nM.

In turn, B5 came in with a Ki of 257 nM.

In the case of B6, the affinity corresponds to a Ki of 95.5 nM.

B7 returned a Ki of 331 nM. This Ki lies about 3.5-fold higher than the previous one.

On to B8, for which affinity was put at a Ki of 1200 nM.

B9 yielded a Ki of 3090 nM. Compared with the last molecule, the Ki is about 2.6-fold higher.

A further assay concerns the target T1, human NK2 Receptor. Put plainly: radioligand competition, displacement of 0.1 nM [125I]-NKA from CHO-hNK2 membranes.
Protocol: as §1
In turn, B1 registered a Ki of 1.74 nM. That is a single-digit nanomolar value.

As to B2, the affinity corresponds to a Ki of 0.2 nM.

As for B3, the affinity, expressed as Ki, was 0.12 nM. Compared with the last molecule, the Ki is about 1.7-fold lower.

B4 returned a Ki of 0.31 nM.

In the case of B5, the Ki was determined as 2.11 nM.

In turn, B6 showed a Ki of 0.88 nM. Against the preceding molecule, the Ki is about 2.4-fold lower.

Molecule B7 had a Ki of 0.59 nM.

Turning to B8, affinity was put at a Ki of 6.85 nM.

As for B9, the Ki was 16.4 nM. This Ki is about 2.4-fold higher than that of the molecule before.
